According to patent publication USRE50618E1, “Anionic-core composition for delivery of therapeutic agents, and methods of making and using the same” (PharmaIN Corporation, priority 2009, dated 2025):
Values joined by “and” are separate entries in the source; they are usually repeats but may differ in a detail not shown here. Identical values can stand only once. Like-named read-outs stand apart in the source and are kept apart here.

B1: Interferon gamma: type II interferon with anti-viral and anti-scarring activity (protein, UniProt P01579 24-161, looked up)
Interferon gamma: QDPYVKEAENLKKYFNAGHSDVADNGTLFLGILKNWKEESDRKIMQSQIVSFYFKLFKNFKDDQSIQKSVETIKEDMNVKFFNSNKKKRDDFEKLTNYSVTDLNVQRKAIHELIQVMAELSPAAKTGKRKRSQMLFRG

Key:
[1] = system: bacteria; conditions: cited from earlier work
[2] = system: adenoviral infection; conditions: cited from earlier work
[3] = cited from earlier work; for isoelectric point (pI): stated in the description; for Isoelectric Point: peptide or protein load molecule, Table 7
[4] = rat, in vivo, 10 mg/kg
[5] = Lysostaphin PK study (serum lysostaphin activity assay); assay type: in vivo; conditions: Sprague Dawley rats, i.v. bolus 12 mg lysostaphin/Kg; lysostaphin 50% of carrier weight
Description: Four carriers were selected for PK study. CSPEG106G, HPPEG105G, 20PLPEG1030-DTPA, and 20PLPEG1030-DTPA-SO were loaded with Lysostaphin equivalent to 50% of the carrier weight. These formulations were obtained by dissolving together an appropriate amount of carrier and Lysostaphin in water and incubating for two hours followed by lyophilization. Each lyophilized formulation (including unformulated lysostaphin alone) was dissolved in saline and administered to Sprague Dawley rats (n=4) by slow (at least 1 min) i.v. bolus (12 mg lysostaphin/Kg) via the lateral tail vein. Blood samples were taken from the orbital sinus at 5 m, 15 m, 30 m, 60 m, 120 m, 4 h, 6 h, 24 h, 32 h (30 h), and 48 h and placed in tubes containing Protease Inhibitors (AEBSF, Aprotinin, E-64, EDTA, and Leupeptin). Sera were obtained by centrifugation at 13,000 rpm. All the sera were stored at −80° C. until used in the assay. 100 of serum was used in this assay for each time point. Lysostaphin's activity was measured by activity assay as follow: Stock buffer (10×) was prepared to contain 1M MOPS/10% Tween (by wt.)/5 mM EDTA/pH 7.3. The final reaction mixtures (2000) in black 96-well plate were prepared to contain 5 μg substrate, 100 mM MOPS, 1% Tween20, 0.5 mM EDTA, pH 7.3, and 100 of serum samples. The samples were added last and after addition the wells were mixed and bubbles in the solution was removed using pipette tip wet with ethanol. Fluorescence (Ex485 nm/Em535 nm) increase was monitored for two hours using Chameleon 96-well microplate fluorometer (Bioscan) every 7.5 minutes for 2 hours. The substrate gave fluorescence product when lysostaphin proteolytically cleaved it.

Molecule	isoelectric point (pI) [3]	Isoelectric Point [3]	also measured
(klaklak)2: synthetic 14 amino acid D-peptide, programmed cell death-inducing sequence (KLAKLAKKLAKLAK; D-amino acids, C-terminal amide)	–	–	concentration that kills bacteria relative to that required to kill eukaryotic cells [1]: 1%
ACYCRIPACI-AGERRYGTCI-YQGRLWAFCC [HNP-1]	–	–	reduction of adenoviral infection [2]: more than 95%
Fibroblast growth factor	8.0-9.0 and 9.6	–	–
GLP1: peptide load molecule with isoelectric point 5.4 used in Table 7	–	5.4	–
H-RRRPRPPYLPRPRPPPFFPPRLPPRIPPGFPPRFPPRFP-OH [PR39]	–	9.96	level at 24 h [4]: 370 ng/mL; level at 48 h [4]: 30 ng/mL
Heparin-binding EGF: EGF-related growth factor that signals through the EGF receptor and binds heparin	–	8.56	–
Lysostaphin: 25-kDa peptidase produced by Staphylococcus simulans, cleaves glycine-glycine bond of Staphylococcus aureus cell wall cross-bridge	9-10	9.56	AUC0 to last [5]: 64.2 hr (μg/ml); AUC0 to ∞ [5]: 67 hr (μg/ml); C0 [5]: 301000 ng/mL; Mean residence time [5]: 0.984 h; Terminal t1/2 [5]: 1.53 h; isoelectric point (pI) ([3]; listed as lysostaphin): 9.56
Nerve growth factor: growth factor listed as basic protein load molecule	8.5-9.5	–	–
Vascular endothelial growth factor	8.0-9.5	–	–
erythropoietin without sialic acid: erythropoietin without sialic acid, listed as load molecule	8.5	–	–
platelet derived growth factor	8.5-10	–	–
B1	8.5-9.5	–	–
